B1: Azoarcus group I ribozyme (parent)
chain: GUGCCUUGCGCCGGGAAACCACGCAAGGGAUGGUGUCAAAUUCGGCGAAACCUAAGCGCCCGCCCGGGCGUAUGGCAACGCCGAGCCAAGCUUCGGCGCCUGCGCCGAUGAAGGUGUAGAGACUAGACGGCACCCACCUAAGGCAAACGCUAUGGUGAAGGCAUAGUCCAGGGAGUGGCGAAAGUCACACAAACCGG

Variants of: B1
Assay: reverse-splicing fitness (ratio to wild type); higher = more active; in vitro selection; Mg2+ level not given
In short: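 An in vitro group I ribozyme library with randomized positions was T7-transcribed and gel-purified. In triplicate, 10 pmol RNA in EPPS pH 7.5 was reacted with 50 pmoles of a 30-nt RNA substrate for 1 h at 37 °C across several added MgCl2 levels (1–48 mM), then stopped with EDTA. Products were reverse transcribed from a substrate-complementary primer, PCR-amplified and sequenced (HiSeq 4000). Fitness is a variant's read proportion after selection over that before, normalised to wild type.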

Row | Variant | reverse-splicing fitness
1 | C82U A111U A120U A145C C169A U176C | 0.00199
2 | C82U A111U A120U A145C C150G C169A | 0.00266
3 | C82U A111U A120U A145C C150G C169G | 0.00307
4 | C82U A111U A120U A145C C150G C169U | 0.00284
5 | C82U A111U A120G A145G C150G C169G U176C | 0.0107
6 | C82U A111U A120G A145G C150G C169G U176A | 0.00842
7 | C82U A111U A120G A145G C150G C169G U176G | 0.00498
8 | C82U A111U A120G C169G U176A | 0.0203
9 | C82U A111U A120G C169G U176C | 0.0225
10 | C82U A111U A120G C169G U176G | 0.00437
11 | C82U A111U A120G C150G C169A U176A | 0.00906
12 | C82U A111U A120G C150G C169A U176C | 0.00855
13 | C82U A111U A120G C150G C169A U176G | 0.00664
14 | C82U A111U A120G A145U C169G U176A | 0.0111
15 | C82U A111U A120G A145U C169G U176G | 0.00402
16 | C82U A111U A120G A145U C169G U176C | 0.0121
17 | C82U A111U A120G A145C C150U C169U | 0.00734
18 | C82U A111U A120G A145C C150U C169G | 0.00792
19 | C82U A111U A120G A145C C150U C169A | 0.00726
20 | C82U A111U A120G A145G C150A U176C | 0.0166
21 | C82U A111U A120G A145G C150A U176A | 0.0093

Row | Variant | reverse-splicing fitness
22 | C82U A111U A120G A145G C150A U176G | 0.00603
23 | C82U A111U A120U A145C C150G C169U U176G | 0.00218
24 | C82U A111U A120U A145C C150G C169U U176C | 0.0022
25 | C82U A111U A120U A145C C150G C169U U176A | 0.00255
26 | C82U A111U A120U A145C C150U C169U U176A | 0.00211
27 | C82U A111U A120U A145C C150U C169U U176G | 0.00212
28 | C82U A111U A120U A145C C150U C169U U176C | 0.00256
29 | C82U A111U A120G C150A C169A U176G | 0.00561
30 | C82U A111U A120G C150A C169A U176C | 0.0173
31 | C82U A111U A120G C150A C169A U176A | 0.0189
32 | C82U A111U A120G A145G C150G | 0.00732
33 | C82U A111U A120G A145G C150U | 0.0119
34 | C82U A111U A120G A145G C150A | 0.00801
35 | C82U A111U A120U A145C C150G C169A U176C | 0.00247
36 | C82U A111U A120U A145C C150G C169A U176G | 0.00281
37 | C82U A111U A120U A145C C150G C169A U176A | 0.00264
38 | C82U A111U A120U A145C C150A C169G U176C | 0.00255
39 | C82U A111U A120U A145C C150A C169G U176G | 0.00189
40 | C82U A111U A120U A145C C150A C169G U176A | 0.00269
41 | C82U A111U A120G A145U C150A C169A U176C | 0.0092
42 | C82U A111U A120G A145U C150A C169A U176G | 0.00508
